# Reference: the DeepSol protein solubility set
# Assay: soluble on expression in E. coli; label from the status in PepcDB or PDB records
row,Sequence,soluble on expression in E. coli
1,MAVKMKYWTDEVGGERGSLKVELKPFGYRIIPLTQWKTLIAMDDVEVKKGEPEIIEVRPFTIPGGTMVGPLHIMRHALGTVLDVVECGIPTRVEDEKCIQRVVFLPVDDGVVREGDIVGVLKVFFIKTGLISRLFNLKPTKVELREEIVEANITWRDDGNIYREKISTKVFGYTRTHVGVWEPLVADEDVGVRAGDVLRVKIRNVELPPNTVVVPLSISRNPYGVVVDVVQLGKPRRVEEPKNIEQAVFLAVDDGEIKRGDLLGVINVYYVGLKKLEPLIATKEPQDFTLVYRKEEKIIRKKVHLPPFGYHRSPVARWEVVVAAEDKELTKNKPVRVKIKKIKIPANTIVYPMEIMRHSDGVLIDLVSDLPWRVEEGGKVDEAIFLPLFDGKIEKDDLLGVINLYQVELSPVEKIREMYNRFVKLSEEELMKYVEGLQ,soluble
2,MAVRVAINGFGRIGRNILRAIVESGRTDIQVVAINDLGPVETNAHLLRYDSVHGRFPKEVEVAGDTIDVGYGPIKVHAVRNPAELPWKEENVDIALECTGIFTSRDKAALHLEAGAKRVIVSAPADGADLTVVYGVNNDKLTKDHLVISNASCTTNCLAPVAQVLNDTIGIEKGFMTTIHSYTGDQPTLDTMHKDLYRARAAALSMIPTSTGAAKAVGLVLPELKGKLDGVAIRVPTPNVSVVDLTFIAKRETTVEEVNNAIREAANGRLKGILGYTDEKLVSHDFNHDSHSSVFHTDQTKVMDGTMVRILSWYDNEWGFSSRMSDTAVALGKLI,soluble
3,MAYAYLFKYIIIGDTGVGKSCLLLQFTDKRFQPVHDLTIGVEFGARMITIDGKQIKLQIWDTAGQESFRSITRSYYRGAAGALLVYDITRRDTFNHLTTWLEDARQHSNSNMVIMLIGNKSDLESRREVKKEEGEAFAREHGLIFMETSAKTASNVEEAFINTAKEIYEKIQEGVFDINNEANGIKIGPQHAATNASHGSNQGGQQAGGGCC,soluble
4,MCAHRPATAPDFLLSRSHGSIRTQGAVETFSDPGKAVEALRSGRVELVVGALAFRRDHACALTVPRSVIREEGPLEPHAYYRQGPGSIVNAQVEKLVPSLDKHHARVEAAINTIKSTSLKKVVLARAVDMTFSPAVDPRLIAARLIDLSRNRDGFIADLTPAGEDFAGAM,not soluble
5,MCGRFVITSAPAAIRQLFGYADQPNFPSRYNIAPTQPVPVVIVDEGARRFRLMRWGLIPSWVKDPRMFSLLINARADTIQDKPAFRNAFRRRRCLVPADGYYEWKAGGSRKQPYFIHPAGGGPIGFAALWETWTGPNGEELDTVAIVTTAARGGLADLHDRVPVTIAPHHFARWLETDETDTEAVMALLGPPGEGEFVWHPVSTAVNRTANDNPQLILPIAAEEVEAPPPAVAKPAPPKRAARPKISADDSGQGSLFLEHHHHHH,soluble
6,MCKDVSGQNLLVAPDAINHHVKTCRENMRYMHYIAPEYENNTELTSAADIYSFGICSLEIAVIGGLSGCQNGSSEGPVTEDVIEKAIRSLEDPMQQDFIRQCLRKDPAERPSARELLFHQILFEVHSLKLLSAHAIVDSKKYEDVSESAFRIKDNETIAATSKLREMAYCQVAAFQVDLEKFLDDVRNGIYPLTAFAPLAHQPSTTLRAYSNTNPSTLITTDISAPSSTHPSANSTITAETSVNTSLPGQSSQPSGTTTNTNGPSSIGKSASPEAVDKKIGEVTSTESTSKVEVEVNGANVTIGSSNGRDAGSPTPEEEGEPNGERDMRLENRHILEINVHIENEEMSIVLLLEDQMHRQLTTSINKGDNPETLTENLITHGFMCQLDSEGVEKAIAVAFDIRAARIAEGVQEEENETSTRESNSEAPIEHGTSSSITNSVKPIVDSVAPSSQTPTTTTSS,not soluble
7,MCLAVPGKVIEVNGPVAVVDFGGVKREVRLDLMPDTKPGDWVIVHTGFAIEKLDEKKAMEILEAWAEVEKAMEGF,soluble
8,MCLILTAWHAHPAYALVVAANRDEFYDRPAAPLAWWSDAPHVLAGRDLAQVVGHAGTWMGMTRDGRFAALTNYRAPSERRPDARSRGELVANFLAAEDASIPAYLDQLKARNGVYNGYNLLTATRDELWWTSNRAEAPRQLAPGVYGLSNALLDTPWFKVRHRVAAFAEALAADTGRHGNAIDVARYLDLLAETREAPLGALPATGVAPEWEKLLSAAFIRSPRYGTRASTVLRIRHDGCFDVTERRFDAQGQIGETRYLGVLDAVTQADTPLEHHHHHH,not soluble
9,MCLIVFAWRPGHAQPLIVAANRDEFYARPSLPLGQWPELPQIHAGRDLEAGGTWLGVGAEGRFAALTNIRNPHQPPARRSRGELVARFLAGDVPLDDYLRDVVGRSVEYAGFNLLLGNAEQLWHYNARDPQPQRLEPGVYGLSNAGLDTPWPKLLKARAALQEVLHDPQPQALLALLSDPQTAPFADLPDTGVGLATESLLSSVFIASPSYGTRASTALIVHADGSRHLLERSFGPYGGHLGEVELKVLEHHHHHH,not soluble
10,MCMPTKKYTEKFKISLVYLYRKGTSKQTLEDFGVSSASLSRWIKWYDVTDVDLNEAANILQMYELKKQKDKLEAEVLELTKAIQLFNSDLNTVLEHHHHHH,soluble
11,MCNTNMSVPTDGAVTTSQIPASEQETLVRPKPLLLKLLKSVGAQKDTYTMKEVLFYLGQYIMTKRLYDEKQQHIVYCSNDLLGDLFGVPSFSVKEHRKIYTMIYRNLVVVNQQESSDSS,soluble
12,MCRALQEQREASAAIAREILGDIKLNVTDGEFAVSIAQQEALESYVDLLEKQEQELIAELHRTVLRLSAKIAATRHLRNLAIREAGKQQGMRMAEDTTERGERQHEEA,not soluble
13,MCRYARSYLLHAFDYTLFVKARLNMAFMISMPAIELAGLTIQVCQFDPQQFDEDQQHYLAPPTYHSLHKAVVKRQAEFVAGRKLAQQALKQIGQGYDRPIAIGTHREPLWPAGITGSIAHCDGWAVCTVLKAEHLSLGIDIEHRLAHQTASEVQAIIGTAQEWALLAQQFDLASAVTLLFSAKESLFKALFPQVHLYLDFCDAQLSSLEPNKMSFTLTRVPNAAQQSCEVYFRWFEQQRVLTVSVLPMLGKIEYHVPTLPT,not soluble
14,MCSGYFELKQMFPIIRKIFVEKSNCSSNTHHSKRSIGETAGLKTGERIVGVNGQLIYPTNTHKEVVPLMKQNAMKTTLLEVH,not soluble
15,MCSHGHSHNCAAEHIPEVPGDDVYRYDMVSYIDMEKVTTLNESVDGAGKKVFKVMEKRDDRLEYVESDCDHELLFNIPFTGHVRLTGLSIIGDEDGSHPAKIRLFKDREAMSFDDCSIEADQEIDLKQDPQGLVDYPLKASKFGNIHNLSILVDANFGEDETKIYYIGLRGEFQHEFRQRIAIATYESRAQLKDHKNEIPDAVAKGLF,not soluble
16,MCSKNSENSNVPRAKSDFITPNCSENTKLFMIFQSRKSIICEVCGKKYSSKSALAKHKRTHETDKRCKIKLIFGSSQKKTQKLYFLQKLSFLDADFFSILERNLLIFGYFAIFFSQKNTYISRFTCPMCYASFDLSDPFKIHLRKHDNLKPFGCSYCFKQFSSRSVCRRHVQLMHENQKRAGDGDNDDDDDID,not soluble
17,MCYIEITKDNIEDNHICCALSTKQYEHAVNEKKRWLKARMDEGLVFYRLHERAKVFIEYLPANEAWVPINAPNFMYINCLWVSGRYKNNGHAKRLLDKCIADAKACGMDGIIHIAGKKKLPYLSDKHFFEHMGFTLQDEAAPYFQLMALTWNGLADSPAFKSQVKSDSINEKGITIYYTAQCPFAVGMINDLRELTEKKGVQFQSIQLSSKEEAQKSPAIWTTFSVFFDGRFVTHEIMSINKFEKLLNTLA,not soluble
18,MDAAKDLRMTQLLQDPHSVREEREKVLEVAIGREVRAFRKQQGITVAELSKLTDLSIGMLSKIENGNTSPSLTTLQTLANALSVPLTAFFKGYEEKREAIHTKAGQGLEIERAGTRAGHQYSLLGHIGSNSSGVIVEPYLITLSTESDTFKTFQHDGIEMIYMLEGKVDYLHGSEIYPLEPGDTLFFDADAPHGPERLVELPTRYLSVICYPQQKKG,not soluble
19,MDADASTITPEELDFIRQRALRRFDSIVPTAGREGTEIASDIFKGRTLAIYTSGGDSQGMNSAVRSITRMAIYCGCKVYLIYEGYEGMIEGGDFIKEATWNTVSDIIQQGGTIIGSARSSEFRTREGRLKAATNLINRGIGRLVCIGGDGSLTGANTFRLEWTDLVQELVKNQRVTAAAAKKIPYIQIVGLVGSIDNDFCGTDMTIGTDSALQRIISSIDAVVATAQSHQRAFVIEVMGRHCGYLALVAALASEADFCFIPEWPAPENWRDVLCDKLSQMRSEGQRLNIIIVAEGAIDRDGKAITAEDVKTAVKEKLKYDTRVTILGHVQRGGAPSAFDRLLGCRMGAEAVFALMEMTEESEPCVISIDGNVMVRVPLLKCVERTQMVQKAMADKDWTTAVMLRGRSFQRNLETYKLLTKMRTVEKDNLSEGHKFNVAVINVGAPAGGMNAAVRSYVRMALYHQCTVYGIEDSFEGLANGSFKQFKWSDVTNWAMNGGSFLGTQKSLPTEKTMPQLAAQLKKHNIQALLLVGGFEAYHSTIILAENREKYPEFCIPMCVIPCTISNNVPGTMVSLGSDTAINEICQMIDKIKQSATGTKRRVFIVETMGGYCGYLATLSALSSGADNAYIFEEPFTVQDLSDDVDVILSKMEVGAKRYLVVRNEWADKNLTTDFVQNLFDSEGKKNFTTRVNVLGHVQQGGSPTPFDRNMGTKLAARALEFLLIQLKENLTADNKVIAKSAHTATLLGLKGRKVVFTPVQDLKKETDFEHRLPSEQWWMALRPLLRVLARHRSTVESSAILESVEEESADSHMF,not soluble
20,MDAEEIRAIFRFSAMEKNMIYSFGIQGDLFLPFLLSLKSGGSWSYATEETKSIAVKDVITYYDEESKTGYTLEKIYFFIDPEVVAKEGVVRRLEKCGTKEERELVERPYIIALRAKRIIFAEVNPGSRKITVRELEKKCIQLKGTPAYSAAHELEHLKKGEVEGIPLWSFEYVKDQ,not soluble
21,MDAELFPRTRAETAPGAVHLPDWLSPGQQRELLDACREWARPPAGLRTVRTPGGGTMTARQVCLGRHWYPYGYAATAVDGDGAPVKPFPARLDGLARRAVTDALGAEAVAPAPYDIALINFYDADARMGMHRDADERTDAPVVSLSLGDTCVFRFGNPETRTRPYTDTELRSGDLFVFGGPSRLAYHGVPRVHPGTAPPELGLRGRLNITLRVSGFLEHHHHHH,not soluble
22,MDAKHIEKVFVKKVPAKSNKAQVKYPFDENSVNVLIIGLDKASNRSTYDLHRTDTILFLNINFKDKKVKGISIPRDTLTEIYKVGKWDKINSAFGYGGGEKEEGFFYTMETVSKLLGGMPIEYYVGFDLDAVRKVVNILGGVYVNVEVPVKVKTKWVNIDLKPGYQKLNGIETLYYALWRKTPGGDIDRIKRDKELILSVFEQLKESNKIITLPEIYWKIRRHFYTNLSLQQITSLAYFAQNMKKEDIVFESIPGDYFNYMGVSYWKPDYEGIKKLVKDLFGYDIEIDLKMPEKYKYARRIIVKAKKENNISYSHTNKSYSTESSQNQNSQSNSEVNLVQKQTETIENSTQSSSPFDAQWRNSSEDTQTLPPENDSQTTQGTQQQQATTESEIQVDTPSTSSDVVSNVYGGRLEHHHHHH,soluble
23,MDATMVFKRLLGSLGVGAPTVDTVLDPAPVLPGGTLTGQVHLEGGQTDFDIEHITLELVARVEAEHEDGEDEGVVVFDRFTVGGGFRLGAEEPRSVPFRVTLPWETPITELYGQPLGIVLGVRTELAVADAKDKGDLDQLTVTALPVQEAVLEAFGQLGFGFGSADLEYGHIGGTGQQLPFYQEIELVPAPQYADRLNEIELTFLAGPGGLEVVLEADKRGGLLSSGHDAVTRFSVGHHDARDWAAEVEGWVRQLVEHHTTYGAPGTHGHSTPYAGHGHHDPHGNGGRHHDDHRSGPGVGTAVAAGAAGLAVGVVGGMVAAEVVDEVGDFFEGDDEEEDEG,not soluble
